Laboratory results: US20140186359A1 (TORAY INDUSTRIES, published 2014)

T1: human CAPRIN-1 expressed on the surface of human cancer cells (human, UniProt Q14444 2-709)
T1 construct: Endogenous CAPRIN-1 of human cancer cell lines or tissues; also called CAPRIN-1 proteins on the cell membrane surface
T1 sequence: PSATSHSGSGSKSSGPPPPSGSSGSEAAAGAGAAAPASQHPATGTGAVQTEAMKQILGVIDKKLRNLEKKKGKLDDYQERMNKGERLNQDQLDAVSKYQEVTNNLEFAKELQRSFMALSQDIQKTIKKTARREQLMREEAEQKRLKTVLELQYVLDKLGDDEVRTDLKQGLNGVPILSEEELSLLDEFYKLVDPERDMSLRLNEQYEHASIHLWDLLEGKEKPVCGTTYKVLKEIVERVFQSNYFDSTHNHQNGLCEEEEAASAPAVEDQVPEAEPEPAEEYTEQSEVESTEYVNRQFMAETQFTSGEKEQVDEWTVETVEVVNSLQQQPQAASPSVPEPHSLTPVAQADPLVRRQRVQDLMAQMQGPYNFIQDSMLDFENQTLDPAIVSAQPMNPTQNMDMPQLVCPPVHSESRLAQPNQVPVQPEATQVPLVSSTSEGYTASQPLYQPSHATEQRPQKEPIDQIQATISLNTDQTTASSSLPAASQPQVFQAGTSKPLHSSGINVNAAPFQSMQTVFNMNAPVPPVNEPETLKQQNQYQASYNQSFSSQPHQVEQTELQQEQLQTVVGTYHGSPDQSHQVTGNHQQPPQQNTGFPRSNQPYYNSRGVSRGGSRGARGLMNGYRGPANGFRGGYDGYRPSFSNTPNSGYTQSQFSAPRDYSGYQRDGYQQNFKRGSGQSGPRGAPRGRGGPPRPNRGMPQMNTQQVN

T2: partial CAPRIN-1 polypeptide consisting of the amino acid sequence of SEQ ID NO: 5 (human)
T2 construct: Peptide coupled to Immobilizer Amino ELISA plate
T2 peptide: VFNMNAPVPPVNEPETLK


Assays:
[1] = target: T1, human CAPRIN-1 expressed on the surface …; assay: flow cytometry on the listed human cancer cell lines, culture supernatant, against secondary antibody only
Procedure: 10⁶ cells of each cell line were centrifuged in each 1.5-ml microcentrifuge tube. Each culture supernatant (100 μl) containing any of the antibodies #1, #2, and #3 and the chicken monoclonal antibodies #1, #2, #3, and #4 was added to the tube and left to stand for 1 hour on ice. After washing with PBS, FITC-labeled goat anti-mouse IgG (H+L) antibodies (manufactured by Jackson ImmunoResearch Laboratories, Inc.) diluted with PBS containing 0.1% FBS for the mouse-derived antibodies or FITC-labeled goat anti-chicken IgG (H+L) antibodies (manufactured by SouthernBiotech) diluted 100-fold with PBS containing 0.1% FBS for the chicken-derived antibodies were added thereto and left to stand at 4° C. for 30 minutes. After washing with PBS, the fluorescence intensity was measured using FACSCalibur (Becton, Dickinson and Company). The negative control used was cells reacted only with secondary antibodies. As a result, all the cells each treated with any of the antibodies #1, #2, and #3 and the chicken monoclonal antibodies #1 to #4 had fluorescence intensity at least 35% stronger than that of the negative control. […] The rates of enhancement in the fluorescence intensity was expressed as the rates of increase in mean fluorescence intensity (MFI) in respective cell lines, which are calculated according to the following formula.

[2] = target: T2, partial CAPRIN-1 polypeptide consisting …; assay: peptide ELISA, culture supernatant
Procedure: The obtained mouse monoclonal antibodies #2 and #3 were examined for their specific reaction with the amino acid sequence of SEQ ID NO: 5 as a partial CAPRIN-1 sequence used as an immunogen. A 30 μg/ml solution of the amino acid sequence of SEQ ID NO: 5 prepared with a 0.1 M aqueous sodium carbonate solution and a partial CAPRIN-1 sequence free from the amino acid sequence of SEQ ID NO: 5 were each added to a 96-well plate Immobilizer Amino for ELISA (Nunc) at […] and reacted for one whole day and night at 4° C. to bind the peptides to the wells. A 0.1 M aqueous sodium carbonate solution containing 10 mM ethanolamine was added to the peptide-bound wells and left to stand at room temperature for 1 hour. The solution in each well was removed, and each well was then washed with PBS-T. Then, a Blockace solution was added thereto at 400 μl/well and left to stand at room temperature for 3 hours. The solution in each well was removed, and each well was washed with PBS-T. Then, the culture supernatant containing the mouse monoclonal antibody #2 was added thereto at […] and reacted at room temperature for 1 hour. […] The absorbance was measured at 450 nm and 595 nm using an absorption spectrometer.

Binder	rate of increase in mean fluorescence intensity [1] [%]	binding result [2]
mouse monoclonal antibody #1 (antibody, V domains shown, Mouse hybridoma antibody; detected with anti-mouse IgG; also called anti-CAPRIN-1 monoclonal antibody #1) VH: GPGLVQPSQSLSITCTVSGFSLTTYDLHWVRQSPGKGLEWLGVIWSGGSTDYNAAFISRLSISKDNSKSQVFFKMNSLQANDTAIYYCARNYGYSAWFAYWGQGTLVTVSA VL: DVLMTQTPLSLPVSLGDQASISCRSSQSIVHSNGNTYLEWYLQKPGQSPKLLIYKVSNRFSGVPDRFSGSGSGTDFTLKISRVEAEDLGVYYCFQGSHVPLTFGAGTKLELKR	≥ 35	–
mouse monoclonal antibody #2 (antibody, V domains shown, Mouse hybridoma antibody; detected with anti-mouse IgG; also called anti-CAPRIN-1 monoclonal antibody #2) VH: GGGLVKPGGSLKLSCAASGFTFSSYGMSWVRQTPEKRLEWVATISSGGSYTYYPDSVKGRFTISRDNAKNTLYLQMSSLRSEDTAMYYCASLASYYFDYWGQGTTLTVSS VL: DVQMIQSPSSLSASLGDIVTMTCQASQGTSINLNWFQQKPGKAPKLLIYGASSLEDGVPSRFSGSCFGTDFTLTISSLEDEDMATYFCLQHSYLPPLTFGAGTKLELKR	≥ 35	–
mouse monoclonal antibody #3 (antibody, V domains shown, Mouse hybridoma antibody; detected with anti-mouse IgG; also called anti-CAPRIN-1 monoclonal antibody #3) VH: GGGLVKPGGSLKLSCAASGFTFSSYGMSWVRQTPEKRLEWVATISSGGSYTYYPDSVKGRFTISRDNAKNTLYLQMSSLRSEDTAMYYCASLASYYFDYWGQGTTLTVSS VL: not shown	≥ 35	binds
chicken monoclonal antibody #1 (antibody, V domains shown, Chicken hybridoma antibody; also called anti-CAPRIN-1 chicken monoclonal antibody #1) VH: AVTLDESGGGLQTPGGALSLVCKASGFTFRSHSMFWVRQAPGKGLEYVAGIYGVGRSIRYGSAVKGRATMSRDNGQSTVRLQLNNLRAEDTATYYCAKSGYFSNSRYWDSGAYFIDAWGHGTEVIVS VL: ALTQPASVSANPGETVEITCSGGYSNYGWYQQKSPGSAPVTVIYYNDKRPSDIPSRFSGSKSGSTATLTITGVQAEDEAVYFCGGYDSSTDAGIFGAGTTLTV	≥ 35	–
chicken monoclonal antibody #3 (antibody, V domains shown, Chicken hybridoma antibody; also called anti-CAPRIN-1 chicken monoclonal antibody #3) VH: AVTLDESGGGLQTPGGGLSLVCKGSGFTFSSFGMFWVRQAPGKGLEFVASISDNGRSTYYGSAVKGRATISRDDGQSTVRLQLNNLRAEDTGTYYCAKNAYVGRGCCFSYSIDAWGHGTEVIVS VL: ALTQPASVSVNPGETVKITCSGGGSSSDAYGWYQQKSPGSAPVTLIYNGSNRPSHIPSRFSGSTSGSTNTLTITGVQVEDEAIYFCGSTDTSTSVGIFGAGTTLTV	≥ 35	–
chicken monoclonal antibody #4 (antibody, V domains shown, Chicken hybridoma antibody; also called anti-CAPRIN-1 chicken monoclonal antibody #4) VH: AVTLDESGGGLQTPGGAVSLVCKGSGFTFSSYGMGWVRQAPGKGLEYVAAIRKDGSTNYGPAVKGRATISRDNGQSTVRLQLSNLRAEDTATYYCAKRSHTGVNAAKIDAWGRGTEVIVS VL: ALTQPASVSANPGETVKITCSGASHNYGWFQQKSPGSAPVTVIYSNDKRPSDIPSRFSGSKSGSTATLTITGVQADDEAVYFCGGYNIYGPTFGAGTTLTV	≥ 35	–
